For assay [1], the target named is His-tagged ECTV vCD30 protein (vCD30His) (Ectromelia virus (ECTV)). Kind of assay: non-reducing SDS-PAGE; purified vCD30His from baculovirus; data not shown.
The target in assay [2] is endogenous vCD30 protein secreted during ECTV infection (Ectromelia virus (ECTV Naval.Cam)). In words: non-reducing SDS-PAGE and Western blot. A general note: In western blotting, separated proteins are transferred to a membrane and probed.

Consider “His-tagged ECTV vCD30 protein (vCD30His) (natural protein)”, for which the stoichiometry N (usually the number of molecules, sites or subunits per partner or assembly) in assay [1] is 3. The substance “endogenous vCD30 protein secreted during ECTV infection (natural protein)” gave a stoichiometry N in assay [2] of 3.

These data come from article PMC2664468.
